The source of these data is PMC11882444 (2025).

The test deals with LHC (LSD1-HDAC-CoREST complex) (Homo sapiens, UniProt O60341, UM171 and InsP6 present). Description: dose-response titration of fluorescein-LHC.

B1: KBTBD4 (protein)
chain: MKGGNADSWQREKLASMESPEEPGASMDENYFVNYTFKDRSHSGRVAQGIMKLCLEEELFADVTISVEGREFQLHRLVLSAQSCFFRSMFTSNLKEAHNRVIVLQDVSESVFQLLVDYIYHGTVKLRAEELQEIYEVSDMYQLTSLFEECSRFLARTVQVGNCLQVMWLADRHSDPELYTAAKHCAKTHLAQLQNTEEFLHLPHRLLTDIISDGVPCSQNPTEAIEAWINFNKEEREAFAESLRTSLKEIGENVHIYLIGKESSRTHSLAVSLHCAEDDSISVSGQNSLCHQITAACKHGGDLYVVGGSIPRRMWKCNNATVDWEWCAPLPRDRLQHTLVSVPGKDAIYSLGGKTLQDTLSNAVIYYRVGDNVWTETTQLEVAVSGAAGANLNGIIYLLGGEENDLDFFTKPSRLIQCFDTETDKCHVKPYVLPFAGRMHAAVHKDLVFIVAEGDSLVCYNPLLDSFTRLCLPEAWSSAPSLWKIASCNGSIYVFRDRYKKGDANTYKLDPATSAVTVTRGIKVLLTNLQFVLA
Molecule B1 displayed an equilibrium dissociation constant (Kd) of 13 nM.

What is called Kd is the free concentration of one partner at which half of the binding sites on the other are occupied at equilibrium, for simple one-to-one binding.
